Molecular target: Filamentous actin (F-actin) (rabbit) (UniProt P68135)
Test: co-sedimentation; high speed actin binding co-sedimentation: 10 uM Vt variant and 20 uM F-actin in actin polymerization buffer (10 mM Tris, 200 mM KCl, 10 mM imidazole, 2.5 mM MgCl2, 1 mM EGTA, 2 mM DTT, pH 7.5), room temperature 1 hr, 185,000 RCF for 60 min; fraction of Vt in the pellet by SDS-PAGE densitometry

reduction of F-actin binding relative to WT Vt [%] | Substance
2 | Vt E1015A (domain or fragment)
2 | Vt E1021A (domain or fragment)

Reference: PMC9882595
